System: HPPD polypeptides
Test: coupled HPPD activity assay: turnover and residual turnover in crude extracts
Type: biochemical, Pseudomonas fluorescens
Details: for Residual turnover [%]: 100 μM Cmpd. 1, signal change with inhibitor divided by signal change without inhibitor; for Turnover: absence of Cmpd. 1, kinetic changes in absorbance (OD) at 320 nm, 30 min; for Turnover / Residual turnover: high substrate concentration; for Residual turnover: presence of 100 μM Cmpd. 1, changes in absorbance (OD) at 320 nm

Row | Molecule | Residual turnover [%] | Turnover | Residual turnover
1 | 29 (protein, mutant HPPD polypeptide) MADLYENPMGLMGFEFIEFASPTPGTLEPIFEIMGFTKVATHRSKNVHLYRQGEINLILNNEPNSIASYFAAEHGPSVCGMAFRVKDSQKAYNRALELGAQPIHIDTGPMELNLPAIKGIGGAPLYLIDRFGEGSSIYDIDFVYLEGVERNPVGAGLKVIDHLTHNVYRGRMVYWANFYEKLFNFREARYFDIKGEYTGLTSKAMSAPDGMIRIPLNEESSKGAGQIEEFLMQFNGEGIQHVAFLTDDLVKTWDALKKIGMRFMTAPPDNYYEMLEGRLPDHGEPVDQLQARGILLDGSSVEGDKRLLLQIFSETLMGPVFFEFIQRKGDDGFGPHSFKVLFESIERDQVRRGVLTAD | 29% | 0.289 | 0.084
2 | 34 (protein, mutant HPPD polypeptide) MADLYENPMGLMGFEFIEFASPTPGTLEPIFEIMGFTKVATHRSKNVHLYRQGEINLILNNEPNSIASYFAAEHGPSVCGMAFRVKDSQKAYNRALELGAQPIHIDTGPMELNLPAIKGIGGAPLYLIDRFGEGSSIYDIDFVYLEGVERNPVGAGLKVIDHLTHNVYRGRMVYWANFYEKLFNFREARYFDIKGEYTGLTSKAMSAPDGMIRIPLNEESSKGAGQIEEFLMQFNGEGIQHVAFLTDDLVKTWDALKKIGMRFMTAPGDNYYEMLEGRLPDHGEPVDQLQARGILLDGSSVEGDKRLLLQIFSETLMGPVFFEFIQRKGDDGFGPHSFKVLFESVERDQVRRGVLTAD | 47% | 0.243 | 0.113
3 | 31 (protein, mutant HPPD polypeptide) MADLYENPMGLMGFEFIEFASPTPGTLEPIFEIMGFTKVATHRSKNVHLYRQGEINLILNNEPNSIASYFAAEHGPSVCGMAFRVKDSQKAYNRALELGAQPIHIDTGPMELNLPAIKGIGGAPLYLIDRFGEGSSIYDIDFVYLEGVERNPVGAGLKVIDHLTHNVYRGRMVYWANFYEKLFNFREARYFDIKGEYTGLTSKAMSAPDGMIRIPLNEESSKGAGQIEEFLMQFNGEGIQHVAFLTDDLVKTWDALKKIGMRFMTAPGDTYYEMLEGRLPDHGEPVDQLQARGILLDGSSVEGDKRLLLQIFSETLMGPVFFEFIQRKGDDGFGPHSFKVLFESVERDQVRRGVLTAD | 37% | 0.268 | 0.098
4 | 40 (protein, mutant HPPD polypeptide) MADLYENPMGLMGFEFIEFASPTPGTLEPIFEIMGFTKVATHRSKNVHLYRQGEINLILNNEPNSIASYFAAEHGPSVCGMAFRVKDSQKAYNRALELGAQPIHIDTGPMELNLPAIKGIGGAPLYLIDRFGEGSSIYDIDFVYLEGVERNPVGAGLKVIDHLTHNVYRGRMVYWANFYEKLFNFREARYFDIKGEYTGLTSKAMSAPDGMIRIPLNEESSKGAGQIEEFLMQFNGEGIQHVAFLTDDLVKTWDALKKIGMRFMTAPGDEYYEMLEGRLPDHGEPVDQLQARGILLDGSSVEGDKRLLLQIFSETLMGPVFFEFIQRKGDDGFGPDSFKVLFESVERDQVRRGVLTAD | 54% | 0.134 | 0.073
5 | 30 (protein, mutant HPPD polypeptide) MADLYENPMGLMGFEFIEFASPTPGTLEPIFEIMGFTKVATHRSKNVHLYRQGEINLILNNEPNSIASYFAAEHGPSVCGMAFRVKDSQKAYNRALELGAQPIHIDTGPMELNLPAIKGIGGAPLYLIDRFGEGSSIYDIDFVYLEGVERNPVGAGLKVIDHLTHNVYRGRMVYWANFYEKLFNFREARYFDIKGEYTGLTSKAMSAPDGMIRIPLNEESSKGAGQIEEFLMQFNGEGIQHVAFLTDDLVKTWDALKKIGMRFMTAPADTYYEMLEGRLPDHGEPVDQLQARGILLDGSSVEGDKRLLLQIFSETLMGPVFFEFIQRKGDDGFGPHSFKVLFESVERDQVRRGVLTAD | 48% | 0.311 | 0.149
6 | 41 (protein, mutant HPPD polypeptide) MADLYENPMGLMGFEFIEFASPTPGTLEPIFEIMGFTKVATHRSKNVHLYRQGEINLILNNEPNSIASYFAAEHGPSVCGMAFRVKDSQKAYNRALELGAQPIHIDTGPMELNLPAIKGIGGAPLYLIDRFGEGSSIYDIDFVYLEGVERNPVGAGLKVIDHLTHNVYRGRMVYWANFYEKLFNFREARYFDIKGEYTGLTSKAMSAPDGMIRIPLNEESSKGAGQIEEFLMQFNGEGIQHVAFLTDDLVKTWDALKKIGMRFMTAPRDEYYEMLEGRLPDHGEPVDQLQARGILLDGSSVEGDKRLLLQIFSETLMGPVFFEFIQRKGDDGFGPHSFKVLFESVERDQVRRGVLTAD | 38% | 0.280 | 0.105
7 | 38 (protein, mutant HPPD polypeptide) MADLYENPMGLMGFEFIEFASPTPGTLEPIFEIMGFTKVATHRSKNVHLYRQGEINLILNNEPNSIASYFAAEHGPSVCGMAFRVKDSQKAYNRALELGAQPIHIDTGPMELNLPAIKGIGGAPLYLIDRFGEGSSIYDIDFVYLEGVERNPVGAGLKVIDHLTHNVYRGRMVYWANFYEKLFNFREARYFDIKGEYTGLTSKAMSAPDGMIRIPLNEESSKGAGQIEEFLMQFNGEGIQHVAFLTDDLVKTWDALKKIGMRFMTAPADEYYEMLEGRLPDHGEPVDQLQARGILLDGSSVEGDKRLLLQIFSETLMGPVFFEFIQRKGDDGFGPHSFKVLFESVERDQVRRGVLTAD | 45% | 0.286 | 0.129
8 | 33 (protein, mutant HPPD polypeptide) MADLYENPMGLMGFEFIEFASPTPGTLEPIFEIMGFTKVATHRSKNVHLYRQGEINLILNNEPNSIASYFAAEHGPSVCGMAFRVKDSQKAYNRALELGAQPIHIDTGPMELNLPAIKGIGGAPLYLIDRFGEGSSIYDIDFVYLEGVERNPVGAGLKVIDHLTHNVYRGRMVYWANFYEKLFNFREARYFDIKGEYTGLTSKAMSAPDGMIRIPLNEESSKGAGQIEEFLMQFNGEGIQHVAFLTDDLVKTWDALKKIGMRFMTAPADNYYEMLEGRLPDHGEPVDQLQARGILLDGSSVEGDKRLLLQIFSETLMGPVFFEFIQRKGDDGFGPHSFKVLFESVERDQVRRGVLTAD | 46% | 0.189 | 0.087
9 | 36 (protein, mutant HPPD polypeptide) MADLYENPMGLMGFEFIEFASPTPGTLEPIFEIMGFTKVATHRSKNVHLYRQGEINLILNNEPNSIASYFAAEHGPSVCGMAFRVKDSQKAYNRALELGAQPIHIDTGPMELNLPAIKGIGGAPLYLIDRFGEGSSIYDIDFVYLEGVERNPVGAGLKVIDHLTHNVYRGRMVYWANFYEKLFNFREARYFDIKGEYTGLTSKAMSAPDGMIRIPLNEESSKGAGQIEEFLMQFNGEGIQHVAFLTDDLVKTWDALKKIGMRFMTAPRDNYYEMLEGRLPDHGEPVDQLQARGILLDGSSVEGDKRLLLQIFSETLMGPVFFEFIQRKGDDGFGPHSFKVLFESVERDQVRRGVLTAD | 61% | 0.108 | 0.066
10 | 37 (protein, mutant HPPD polypeptide) MADLYENPMGLMGFEFIEFASPTPGTLEPIFEIMGFTKVATHRSKNVHLYRQGEINLILNNEPNSIASYFAAEHGPSVCGMAFRVKDSQKAYNRALELGAQPIHIDTGPMELNLPAIKGIGGAPLYLIDRFGEGSSIYDIDFVYLEGVERNPVGAGLKVIDHLTHNVYRGRMVYWANFYEKLFNFREARYFDIKGEYTGLTSKAMSAPDGMIRIPLNEESSKGAGQIEEFLMQFNGEGIQHVAFLTDDLVKTWDALKKIGMRFMTAPSDNYYEMLEGRLPDHGEPVDQLQARGILLDGSSVEGDKRLLLQIFSETLMGPVFFEFIQRKGDDGFGPHSFKVLFESVERDQVRRGVLTAD | 50% | 0.096 | 0.048
11 | 35 (protein, mutant HPPD polypeptide) MADLYENPMGLMGFEFIEFASPTPGTLEPIFEIMGFTKVATHRSKNVHLYRQGEINLILNNEPNSIASYFAAEHGPSVCGMAFRVKDSQKAYNRALELGAQPIHIDTGPMELNLPAIKGIGGAPLYLIDRFGEGSSIYDIDFVYLEGVERNPVGAGLKVIDHLTHNVYRGRMVYWANFYEKLFNFREARYFDIKGEYTGLTSKAMSAPDGMIRIPLNEESSKGAGQIEEFLMQFNGEGIQHVAFLTDDLVKTWDALKKIGMRFMTAPPDNYYEMLEGRLPDHGEPVDQLQARGILLDGSSVEGDKRLLLQIFSETLMGPVFFEFIQRKGDDGFGPHSFKVLFESVERDQVRRGVLTAD | – | 0.036 | 0.023
12 | 39 (protein, mutant HPPD polypeptide) MADLYENPMGLMGFEFIEFASPTPGTLEPIFEIMGFTKVATHRSKNVHLYRQGEINLILNNEPNSIASYFAAEHGPSVCGMAFRVKDSQKAYNRALELGAQPIHIDTGPMELNLPAIKGIGGAPLYLIDRFGEGSSIYDIDFVYLEGVERNPVGAGLKVIDHLTHNVYRGRMVYWANFYEKLFNFREARYFDIKGEYTGLTSKAMSAPDGMIRIPLNEESSKGAGQIEEFLMQFNGEGIQHVAFLTDDLVKTWDALKKIGMRFMTAPGDEYYEMLEGRLPDHGEPVDQLQARGILLDGSSVEGDKRLLLQIFSETLMGPVFFEFIQRKGDDGFGPHSFKVLFESVERDQVRRGVLTAD | 40% | 0.244 | 0.097
13 | 32 (protein, mutant HPPD polypeptide) MADLYENPMGLMGFEFIEFASPTPGTLEPIFEIMGFTKVATHRSKNVHLYRQGEINLILNNEPNSIASYFAAEHGPSVCGMAFRVKDSQKAYNRALELGAQPIHIDTGPMELNLPAIKGIGGAPLYLIDRFGEGSSIYDIDFVYLEGVERNPVGAGLKVIDHLTHNVYRGRMVYWANFYEKLFNFREARYFDIKGEYTGLTSKAMSAPDGMIRIPLNEESSKGAGQIEEFLMQFNGEGIQHVAFLTDDLVKTWDALKKIGMRFMTAPPDTYYEMLEGRLPDHGEPVDQLQARGILLDGSSVEGDKRLLLQIFSETLMGPVFFEFIQRKGDDGFGPHSFKVLFESVERDQVRRGVLTAD | 39% | 0.326 | 0.128
